According to the DeepSol protein solubility set:

Assay: soluble on expression in E. coli; label from the status in PepcDB or PDB records

Sequence | soluble on expression in E. coli
MMHKRDQDYWIFSAELRDAKVKDDQSSKPQIVTPLGISIKRILCTGTVTSKQGDDRMTRITVADPVGNFYVIGFSNGFNPEEKAMLDKVSVDDRIMVIGKISSYRNTEGNYLFSIRPELVSKIDDEAMKFWSLKAYYFAKRRYYAIREAQKSENPAAEILKESGYTMVEAEAAMNAINNFPNYDYQKLFELIEPAMSSIGSSGAIAEARSMILDYIKNNDLDGKGCRYEDIVVAAKNAGIDQSTVDEILNSLGSLGEIFEVSLKRYKFVDTP | not soluble
MSRPQFTSLRLSLLALAVSATLPTFAFATETMTVTATGNARSSFEAPMMVSVIDTSAPENQTATSATDLLRHVPGITLDGTGRTNGQDVNMRGYDHRGVLVLVDGVRQGTDTGHLNGTFLDPALIKRVEIVRGPSALLYGSGALGGVISYDTVDAKDLLQEGQSSGFRVFGTGGTGDHSLGLGASAFGRTENLDGIVAWSSRDRGDLRQSNGETAPNDESINNMLAKGTWQIDSAQSLSGLVRYYNNDAREPKNPQTVGASESSNPMVDRSTIQRDAQLSYKLAPQGNDWLNADAKIYWSEVRINAQNTGSSGEYREQITKGARLENRSTLFADSFASHLLTYGGEYYRQEQHPGGATTGFPQAKIDFSSGWLQDEITLRDLPITLLGGTRYDSYRGSSDGYKDVDADKWSSRAGMTINPTNWLMLFGSYAQAFRAPTMGEMYNDSKHFSIGRFYTNYWVPNPNLRPETNETQEYGFGLRFDDLMLSNDALEFKASYFDTKAKDYISTTVDFAAATTMSYNVPNAKIWGWDVMTKYTTDLFSLDVAYNRTRGKDTDTGEYISSINPDTVTSTLNIPIAHSGFSVGWVGTFADRSTHISSSYSKQPGYGVNDFYVSYQGQQALKGMTTTLVLGNAFDKEYWSPQGIPQDGRNGKIFVSYQW | not soluble
AIAFRSVLVEAAVRVESPLLAHRLEDALLHACKQRFCSRILPSLGVCLTALRICKLVDGAGKQLALEIWPVEVSGGGLRARVHVELLLWSPLPHELAFAQVRSCSRFGIRLSILNGFDYAFVPPGSMPEPCTYHEEQRCWSWRFNEDDFVIGEGDWVRVLIERVEYATDSAMATFDSPGTVGSGPPLHILPPPVPVGRTVMETDQANATPGAHPEHAPPLETEPPEFWETPSILPLRVWARLDAPGLGPIDWWS | soluble
MGSDKIHHHHHHMTELHREAFDYAPNMRRLRAVIAVAEAGSVMRAAEALHLSQPAVTRAVRDLEKELGLALFERHRSGMLCTTAGKIVLHRFRRALQQLIEAETALARLHPEGNFERLPQRLSHRQLTVLVAVADLHNEPLAAKRLGLTQPAVSGNLRDLERLLGIALFLRTQRGMLATDGGAVLIRHAKMALRELSLVSDDLSAWQGEVRGRVVIGTLPLSSSLLVPHAVDALLRELPGLNVTIIEGTYDALFESLRHGEIDILIGALRQAGTSEDTHQQRLFHDRLAVAARQGHPLMKHAALQLSDLLDAQWIAPRQGTPARVSFEQEFRSAGLQPPSVVVESGNLSTIRTLLLDSDRVTLVSPHQVFFEVQSGQLALLPIKLTGTLRPIGITTRADDSPTQALKVLKDILLTLGERMADPSSATRA | not soluble
MGSDKIHHHHHHMKWCSSMSDPKPCIICVAITGSVPTKAANPAVPITVAEQIESTHAAFEAGAAICHAHVRNDDETPSSDPEKFARLKEGVEGHCPGMIVQLSTGGRSGASKERGGMLPLRPDMASLSVGSNNFPTRVYENPPDLVDWLAAEMRTYDIKPEIEAFDLSHIHHAALMHQRGQLAGHPYVQFVMGVKNAMPADRETFDFYVATMTRLLPESEWCAAGIGPNQIVLNEWAIAAGGHARTGLEDNVRWDKQTLAPSNAALVERTAEICEKNGRPVATTAQAREILGLRT | not soluble
MGHHHHHHSHMCNTPTYCDLGKAAKDVFNKGYGFGMVKIDLKTKSCSGVMEFSTSGHAYTDTGKASGNLETKYKVCNYGLTFTQKWNTDNTLGTEISWENKLAEGLKLTLDTIFVPNTGKKSGKLKASYKRDCFSVGSNVDIDFSGPTIYGWAVLAFEGWLAGYQMSFDTAKSKLSQNNFALGYKAADFQLHTHVNDGTEFGGSIYQKVNEKIETSINLAWTAGSNNTRFGIAAKYMLDCRTSLSAKVNNASLIGLGYTQTLRPGVKLTLSALIDGKNFSAGGHKVGLGFELEA | not soluble
MSHELVELLRSVLKEELQPIHERLDRLEAGQQRLEERQQRLEERQQRLEERQQRLEEQQQRLGEKLDHFIIETRSHFKKIEDKLAGHRRMFDILPHDWRDTTMAIEYLKHKISQHDLEIYQLKKRLELQETK | not soluble
